Laboratory results from paper PMC2234237 (The Journal of Cell Biology, 2008).

T1: Pih1/Nop17, full length, untagged, recombinant (monomeric species) (S. cerevisiae, UniProt P38768 1-344)
T1 sequence: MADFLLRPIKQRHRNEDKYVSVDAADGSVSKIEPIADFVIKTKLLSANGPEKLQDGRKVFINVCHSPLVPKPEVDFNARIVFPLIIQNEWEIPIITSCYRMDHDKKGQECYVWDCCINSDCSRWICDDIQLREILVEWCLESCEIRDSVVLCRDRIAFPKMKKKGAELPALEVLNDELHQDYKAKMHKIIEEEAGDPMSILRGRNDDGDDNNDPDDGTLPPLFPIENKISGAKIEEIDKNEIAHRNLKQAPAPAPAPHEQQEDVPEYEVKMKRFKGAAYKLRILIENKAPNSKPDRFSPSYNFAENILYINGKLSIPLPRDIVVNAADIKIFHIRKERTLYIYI


Columns and labels:
Rvb2, recombinant = Rvb2, recombinant (S. cerevisiae, UniProt Q12464 1-471); assay: SEC
Chain of Rvb2, recombinant (Q12464 whole entry, the tested form may be a part): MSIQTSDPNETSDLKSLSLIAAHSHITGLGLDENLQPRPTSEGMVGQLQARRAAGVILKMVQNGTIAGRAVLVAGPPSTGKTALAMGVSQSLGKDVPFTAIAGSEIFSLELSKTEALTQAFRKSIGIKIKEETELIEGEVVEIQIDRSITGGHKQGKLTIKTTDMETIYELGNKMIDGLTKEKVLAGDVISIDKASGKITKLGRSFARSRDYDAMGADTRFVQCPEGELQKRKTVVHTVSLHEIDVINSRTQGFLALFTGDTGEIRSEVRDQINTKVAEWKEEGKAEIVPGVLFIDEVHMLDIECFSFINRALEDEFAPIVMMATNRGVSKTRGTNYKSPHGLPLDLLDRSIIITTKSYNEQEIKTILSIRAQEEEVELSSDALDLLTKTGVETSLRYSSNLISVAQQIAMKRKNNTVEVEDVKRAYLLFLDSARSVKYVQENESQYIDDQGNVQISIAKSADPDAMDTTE

[1] = target: Hsp82-MC (residues 260-709) (S. cerevisiae, UniProt P02829 260-709); assay: pull-down
Chain of Hsp82-MC (residues 260-709) (P02829 260-709): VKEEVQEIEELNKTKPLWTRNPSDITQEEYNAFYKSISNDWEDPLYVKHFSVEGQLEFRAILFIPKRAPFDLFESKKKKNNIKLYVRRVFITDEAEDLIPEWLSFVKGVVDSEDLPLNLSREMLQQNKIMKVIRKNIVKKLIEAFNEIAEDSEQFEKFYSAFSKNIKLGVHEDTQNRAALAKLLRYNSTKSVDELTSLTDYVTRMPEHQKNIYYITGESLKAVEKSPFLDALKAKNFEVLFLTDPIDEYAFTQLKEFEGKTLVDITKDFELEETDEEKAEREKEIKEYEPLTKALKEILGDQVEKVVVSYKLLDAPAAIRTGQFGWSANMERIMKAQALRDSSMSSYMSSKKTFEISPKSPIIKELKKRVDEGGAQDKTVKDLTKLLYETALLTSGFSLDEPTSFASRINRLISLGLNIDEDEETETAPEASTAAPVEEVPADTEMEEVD

[2] = target: T1, Pih1/Nop17, full length, untagged, …; assay: pull-down

Binder | binding result (Rvb2, recombinant) | binding result [1] | binding result [2]
Rvb1, recombinant (natural protein) MVAISEVKENPGVNSSNSGAVTRTAAHTHIKGLGLDESGVAKRVEGGFVGQIEAREACGVIVDLIKAKKMSGRAILLAGGPSTGKTALALAISQELGPKVPFCPLVGSELYSVEVKKTETLMENFRRAIGLRIKETKEVYEGEVTELTPEDAENPLGGYGKTISHVIVGLKSAKGTKTLRLDPTIYESIQREKVSIGDVIYIEANTGAVKRVGRSDAYATEFDLETEEYVPLPKGEVHKKKEIVQDVTLHDLDVANARPQGGQDVISMMGQLLKPKKTEITEKLRQEVNKVVAKYIDQGVAELIPGVLFIDEVNMLDIEIFTYLNKALESNIAPVVVLASNRGMTTVRGTEDVISPHGVPPDLIDRLLIVRTLPYDKDEIRTIIERRATVERLQVESSALDLLATMGTETSLRYALQLLAPCGILAQTSNRKEIVVNDVNEAKLLFLDAKRSTKILETSANYL | binds |  | 
Sti1 TPR2a domain (residues 260-386) (domain or fragment) IEADKEKAEGNKFYKARQFDEAIEHYNKAWELHKDITYLNNRAAAEYEKGEYETAISTLNDAVEQGREMRADYKVISKSFARIGNAYHKLGDLKKTIEYYQKSLTEHRTADILTKLRNAEKELKKAE |  | binds | 
Tah1, full length, recombinant (natural protein) MSQFEKQKEQGNSLFKQGLYREAVHCYDQLITAQPQNPVGYSNKAMALIKLGEYTQAIQMCQQGLRYTSTAEHVAIRSKLQYRLELAQGAVGSVQIPVVEVDELPEGYDRS |  | binds | binds
